Reference: US5547938A, “Therapeutic agent for digestive tract diseases using glicentin” (Nisshin Flour Milling Co., Ltd., priority 1993, dated 1996)
Ends that are not written are not given here.

Legend:
intestinal mucosa = assay: Example 2: intestinal mucosal weight in rats after subcutaneous glicentin or control peptides; type: in vivo; details: 1 nmol per rat s.c.; for Intestinal mucosal weight: third of four equal parts of small intestine from the duodenum
Experimental: A solution of glicentin dissolved in a small amount of distilled water for injection was diluted with a 2% solution of bovine albumin prepared with a physiological saline solution for injection to a concentration of 400 μg/ml (50 nmol/ml). The solution was frozen and stored until used. On use it was 1:10 diluted with the physiological saline solution and subcutaneously given to rats at a dose of 0.2 ml, i.e., 1 nmol of glicentin per rat.
They were prepared and administered in the same way as glicentin at a dose of 1 nmol.
The small intestine was divided equally into four parts and the third part from the duodenum was measured for the weight of the mucosa.

intestinal mucosae = assay: Example 1: nutritional (trophic) effect of glicentin on the intestinal mucosae of rats fed an elemental nutrition; type: in vivo, rat; details: 10 μg s.c. every 12 hours for 7 days
Experimental: An experiment was performed in male SD rats weighing 140-160 g which had been fed on standard food under light-dark condition of a cycle of 12 hours. The food which was replaced by an elemental nutrition (Elental®, Morishita-Roussel Japan) was taken ad lib., and remained unchanged until the experiment was finished. After feeding on the component nutrition for 3 days, administration of glicentin prepared as described below was started.
Gelatin was dissolved in warm water to a weight ratio of 16%, and the solution autoclaved and cooled to room temperature. To 40 ml of the gelatin solution was added a solution of 1 mg of glicentin in 10 ml of distilled water with stirring at room temperature. The mixture was divided into test tubes, freeze dried and stored for use.
The gelatin solution was subcutaneously given at a dose of 10 μg per glicentin every 12 hours for 7 days to examine a nutritional effect of glicentin on the intestinal mucosae. A similar gelatin solution containing no glicentin was given for the same period of time as a control for comparison. Twelve hours after completion of the final administration, the rats were sacrificed and subjected to removal of the small intestine in the region from the Treitz's ligamentum to the cecum. The removed small intestine was cut at the central site to separate it into the jejunum and the ileum. The lumen of each of the intestinal tracts was gently washed with an aqueous physiological saline solution. The intestinal tracts were longitudinally incised, respectively, and tissues were removed of a portion of the jejunum in proximity to the duodenum, a portion of the ileum in proximity to the cecum and a portion around the boundary between the jejunum and the ileum and fixed in a 3.7% formalin solution as the proximal, distal and middle sites of the small intestine, respectively. Mucosae were collected by ablation with a spatula from the remainder of the intestinal tracts and weighed, respectively.
The tissues fixed in the formalin solution were embedded in paraffin to form a preparation which was stained with hematoxylin-eosin and measured for height of the villi using an optical microscope.

male BALB/c mice = assay: Intraperitoneal administration of human glicentin to mice, appearance observed; type: in vivo, mouse; details: 10 mg/kg intraperitoneally, male BALB/c mice (6 weeks age)
[1] = system: digestive tracts (gastric antrum, duodenum, jejunum); assay: Example 3: motility of the digestive tracts after meal in dogs (strain gauge transducers); type: in vivo, dog; details: 400 pmol/kg i.v. over 1 hour
Experimental: An experiment was performed as described below in order to examine the action of glicentin on a motility of the digestive tracts after meal.
Six hybrid dogs weighing 16-18 kg were sutured with strain gauge transducers (manufactured by Star Medical, F121S) at a site of the gastric antrum 4 cm from the pyloric ring, a site of the duodenum for the main incurrent pancreatic duct and a site of the jejunum 10 cm from the Treitz's ligamentum, respectively, to measure the contractile force intensity of the circular muscle. Recovery period for the suture was 2 weeks.
Three of the 6 dogs were intravenously given over 1 hour 15 ml of a physiological saline solution in which 400 pmol of glicentin had been dissolved per kg of bodyweight. The remaining three received an aqueous physiological solution containing no glicentin in the same way as above as a control for comparison. The dogs were fed on 15 g of a solid diet (SD®, manufactured by Oriental Yeast K. K.) and 15 g of Vitaone® (manufactured by Nihon Pet Food K. K. and Kyodo Shiryo K. K. ) per kg of bodyweight simultaneously with the intravenous administration.
Then, the motor activity of the digestive tracts and length of the post-feed period were measured. Intensity of the contraction in the post-feed period was integrated for the two-hour measurements and evaluated in comparison with the mean level of the signal peak in phase 3 motor activity of the intestinal tracts in hunger and taken as a motor index.

[2] = post-feed contraction integrated over two hours relative to phase 3 peak

| Molecule | Intestinal mucosal weight (intestinal mucosa) [g] | Ileal mucosal weight per 100 g bodyweight (intestinal mucosae) [g/100 g bodyweight] | Jejunal mucosal weight per 100 g bodyweight (intestinal mucosae) [g/100 g bodyweight] | Length of small intestine per 100 g bodyweight (intestinal mucosae) [cm/100 g bodyweight] | Whole small intestinal mucosal weight per 100 g bodyweight (intestinal mucosae) [g/100 g bodyweight] | effect on weight of intestinal mucosa (in words) (intestinal mucosa; versus control) | change in appearance (male BALB/c mice) | Length of post-feed period ([1]; simultaneously with feeding) [h] | Motor index, duodenum [1, 2] | Motor index, jejunum [1, 2] | Motor index, stomach vestibulum [1, 2] |
| --- | --- | --- | --- | --- | --- | --- | --- | --- | --- | --- | --- |
| Glucagon-like peptide-1: peptide hormone which occurs in a region of preproglucagon containing no glicentin (HAEGTFTSDVSSYLEGQAAKEFIAWLVKGR; ends and bridges not checked; UniProt P01275 98-127, looked up) [reference compound] | 0.498 ± 0.042 | – | – | – | – | – | – | – | – | – | – |
| Glicentin: Enteroglucagon peptide comprising 69 amino acid residues (SEQ ID NO:1), prepared by genetic engineering procedure (protein) RSLQDTEEKSRSFSASQADPLSDPDQMNEDKRHSQGTFTSDYSKYLDSRRAQDFVQWLMNTKRNRNNIA | 0.614 ± 0.025 | 0.57 ± 0.04 | 0.75 ± 0.08 | 66.4 ± 1.7 | 1.32 ± 0.03 | significantly increases | no change in appearance | 13.6 ± 1.0 | 0.675 ± 0.4 | 1.087 ± 0.2 | 0.878 ± 0.1 |
